US12377130B2, “Pharmaceutical composition comprising CCN5 as active ingredient, for preventing or treating retinal diseases” (OLIVES BIOTHERAPEUTICS INC., priority 2018, dated 2025)

Key:
Assay type in all cases: cell-based, human
ARPE-19 cells [1] = experiment: Bevacizumab-induced fibrotic deformation of ARPE-19 cells and prevention by AdCCN5; conditions: bevacizumab 0.25 mg/ml
Method: Recombinant TGF-β2 was purchased from PeproTech Korea (Korea). ARPE-19 cells were treated with the recombinant TGF-β2 at 10 ng/ml. Recombinant EGF and FGF-2 were purchased from Invitrogen (USA). ARPE-19 cells were treated with 1 mM of EGTA, 10 ng/ml of EGF, and 20 ng/ml of FGF-2.
Use of an anti-VEGF drug that inhibits neovascularization is a widely used method for treating wet age-related macular degeneration. However, this method has a side effect of causing morphological and functional changes in RPE cells. […] The specific experimental process is shown in Example 2, and this experimental process is schematically illustrated in FIG. 11a. The experimental results are illustrated in FIGS. 11b to 11d.

ARPE-19 cells [2] = experiment: Anti-VEGF drug-induced fibrotic deformation of ARPE-19 cells, simultaneous treatment with CCN5 protein; conditions: for expression of CCN5 on treatment with anti-VEGF drug / expression of CCN2 on treatment with anti-VEGF drug: bevacizumab 0.25 mg/ml, ranibizumab 0.125 mg/ml, aflibercept 0.5 mg/ml
ARPE-19 cells [3] = experiment: Prevention of TGF-β-induced fibrotic deformation of ARPE-19 cells (microscopy, Western blotting, qPCR, immunofluorescence); conditions: FIG. 3
Method: A retinal pigment epithelial cell line (ARPE-19; ATCC, USA) was cultured in a 5% CO2 incubator at 37° C. using Dulbecco's modified Eagle's medium and Ham's F12 Nutrient Mixture medium (DMEM/F12; Welgene, Korea), containing 1% antibiotics (Gibco, USA) and 10% fetal bovine serum (FBS; HyClone, USA). The medium was replaced with fresh medium every other day. When the cells were cultured to a certain extent in a culture plate, these cells were subcultured using 0.25% trypsin/0.02% EDTA (Gibco, USA). […]
Cells that had been grown by being seeded in a 12-well culture plate, each well containing a coverslip, were fixed with 4% formaldehyde and treated with 0.2% Triton X-100 for 10 minutes. […] Observation was performed under a fluorescence microscope.
RNA was extracted using TRIZOL™ (Invitrogen, USA) reagent. cDNA was synthesized using a reverse transcription kit (Promega, USA), and real-time polymerase chain reaction was performed using SYBR® green (TAKARA, Japan). The level of RNA was analyzed by analyzing the amplification reaction curve, and this analysis was performed in triplicate or quadruplicate. The relative expression level of genes was quantified by normalization to 18s rRNA. […]

ARPE-19 cells [4] = experiment: Restoration of already formed TGF-β-induced fibrotic deformation of ARPE-19 cells; conditions: then agent (restoration); for expression of mesenchymal (α-SMA, vimentin, fibronectin) and epithelial (ZO-1, occludin) marker proteins (Western blotting): TGF-β 2 days, FIGS. 6c, 8b, 12b, 13b
Method: The cultured cells were divided into the following two groups and subjected to drug treatment: one group in which induction of differentiation of retinal pigment epithelial cells into mesenchymal cells was suppressed; and the other group in which retinal pigment epithelial cells that had been induced to differentiate into mesenchymal cells were caused to return to normal retinal pigment epithelial cells. The ARPE-19 cells were grown in serum-free medium for 24 hours. Then, the cells were treated with AdCCN5 at 50 multiplicity of infection (MOI) followed by 10 ng/ml of TGF-β2 (PeproTech Korea, Korea), or treated with TGF-β2 followed by AdCCN5.
For in vitro experiments, the cultured ARPE-19 cells were washed with phosphate buffered saline (PBS), and suspended with a mixed solution of cold RIPA buffer (1% NP-40, 50 mM Tris-HCl [pH 7.4], 150 mM NaCl, and 10 mM NaF) and a protease inhibitor cocktail (Roche, Germany). The cell suspension was subjected to treatment with an ultrasonic generator for 5 minutes at an amplitude of 5% with a cycle of 2 seconds on/1 second off.
Cells that had been grown by being seeded in a 12-well culture plate, each well containing a coverslip, were fixed with 4% formaldehyde and treated with 0.2% Triton X-100 for 10 minutes. The cells were blocked with a diluted solution of 5% bovine serum albumin in PBS, and incubated with anti-ZO-1 and anti-α-SMA antibodies overnight at 4° C. For secondary antibodies, the cells were incubated for 1 hour at room temperature with FITC- or Alexa Fluor 594-conjugated secondary antibodies, TEXAS RED®-conjugated phalloidin (Invitrogen, USA) for f-actin staining, and Hoechst 33342 (Invitrogen, USA) for nuclear staining. The results were observed using an epifluorescence microscope (Zeiss, Germany). For retinal flat-mount experiments, the eyes were enucleated from the mice, and each eye was fixed in 4% formaldehyde for 24 hours. […] Observation was performed under a fluorescence microscope. […]

ARPE-19 cells [5] = experiment: Induction of fibrotic deformation of ARPE-19 cells by TGF-β
Method: The mature ARPE-19 cells form a cobblestone-like monolayer and express marker proteins specific for epithelial cells. The cultured ARPE-19 cells were treated with TGF-β at 5 ng/ml or 10 ng/ml for 2 days (FIG. 1a). The results are illustrated in FIGS. 1b to 1d.

[6] = TGF-β 5 or 10 ng/ml, 2 days, FIG. 1c

## bevacizumab: anti-VEGF monoclonal antibody drug sold under the brand name Avastin
ARPE-19 cells [1]; FIG. 11b
  morphology of ARPE-19 cells on treatment with bevacizumab: the morphology of the cells changed
ARPE-19 cells [1]; FIG. 11c
  expression of CCN5 on treatment with bevacizumab (Western blotting): the expression of CCN5 is decreased by bevacizumab
ARPE-19 cells [2]; FIG. 14b
  expression of CCN5 on treatment with anti-VEGF drug: decreased expression of CCN5

## Cc1cccc(-c2nn(C(=S)Nc3ccccc3)cc2-c2ccnc3ccccc23)n1 [A83-01, reference compound]
ARPE-19 cells [3]
  TGF-β-induced fibrotic deformation (Western blotting), CCN5 compared with A83-01: inhibited TGF-β-induced fibrotic deformation of ARPE-19 cells
ARPE-19 cells [4]
  expression of mesenchymal (α-SMA, vimentin, fibronectin) and epithelial (ZO-1, occludin) marker proteins (Western blotting): failed to normalize abnormal changes in expression of mesenchymal marker proteins (α-SMA, vimentin, and fibronectin) and epithelial marker proteins (ZO-1 and occludin)

## ranibizumab: anti-VEGF monoclonal antibody fragment (Fab) sold under the brand name LUCENTIS
ARPE-19 cells [2]; FIG. 14b
  expression of CCN2 on treatment with anti-VEGF drug: increased expression of CCN2
  expression of CCN5 on treatment with anti-VEGF drug: decreased expression of CCN5

## aflibercept: anti-VEGF drug sold under the brand name EYLEA
ARPE-19 cells [2]; FIG. 14b
  expression of CCN2 on treatment with anti-VEGF drug: increased expression of CCN2
  expression of CCN5 on treatment with anti-VEGF drug: decreased expression of CCN5

B1: TGF-β: Recombinant TGF-β2 (PeproTech), trigger for fibrotic deformation of RPE cells (protein, UniProt P61812 303-414, looked up)
Transforming growth factor …: ALDAAYCFRNVQDNCCLRPLYIDFKRDLGWKWIHEPKGYNANFCAGACPYLWSSDTQHSRVLSLYNTINPEASASPCCVSQDLEPLTILYYIGKTPKIEQLSNMIVKSCKCS
ARPE-19 cells [5]; FIG. 1d
  α-SMA, f-actin and tight junction after treatment with TGF-β (immunofluorescence staining): the expression of α-SMA and f-actin is increased and the formation of tight junction is inhibited
ARPE-19 cells [5]; TGF-β 5 or 10 ng/ml, 2 days, FIG. 1b
  morphology of ARPE-19 cells after treatment with TGF-β: acquired a fibroblastic morphology
ARPE-19 cells [5]; [6]
  expression level of CCN5 protein after treatment with TGF-β: significantly decreased the expression level of human-derived CCN5 protein
  expression of mesenchymal and epithelial marker proteins after treatment with TGF-β: the expression of the mesenchymal marker proteins, α-SMA, vimentin, fibronectin, and type I collagen, was increased, whereas the expression of the epithelial marker proteins, ZO-1 and occludin, was significantly decreased

B2: CCN5 protein: purified human-derived CCN5 protein, extracellular matrix-related protein of the CCN family, also called WISP-2 (protein)
chain: QLCPTPCTCPWPPPRCPLGVPLVLDGCGCCRVCARRLGEPCDQLHVCDASQGLVCQPGAGPGGRGALCLLAEDDSSCEVNGRLYREGETFQPHCSIRCRCEDGGFTCVPLCSEDVRLPSWDCPHPRRVEVLGKCCPEWVCGQGGGLGTQPLPAQGPQFSGLVSSLPPGVPCPEWSTAWGPCSTTCGLGMATRVSNQNRFCRLETQRRLCLSRPCPPSRGRSPQNSAF
modifications: CCN5(except signal peptide, human)
ARPE-19 cells [3]
  TGF-β-induced fibrotic deformation (Western blotting), CCN5 compared with A83-01: inhibited TGF-β-induced fibrotic deformation of ARPE-19 cells to the same level as A83-01
ARPE-19 cells [4]
  expression of mesenchymal (α-SMA, vimentin, fibronectin) and epithelial (ZO-1, occludin) marker proteins (Western blotting): inhibited increased expression of mesenchymal marker proteins (α-SMA, vimentin, and fibronectin) and restored decreased expression of epithelial marker proteins (ZO-1 and occludin) to a normal level
ARPE-19 cells [4]; TGF-β, FIGS. 6d, 12c, 13c
  tight junction (immunofluorescence staining): restore the tight junction, disrupted by TGF-β, to normal
ARPE-19 cells [2]; simultaneous treatment with anti-VEGF drugs
  expression of mesenchymal and epithelial marker proteins (Western blotting): inhibited increased expression of mesenchymal marker proteins (α-SMA, vimentin, and fibronectin) and decreased expression of epithelial marker proteins (ZO-1 and occludin)
ARPE-19 cells [2]; simultaneous treatment with anti-VEGF drugs, FIG. 14b
  anti-VEGF drug-induced decrease of CCN5 and increase of CCN2 expression, effect of CCN5 protein: this phenomenon was inhibited by CCN5 protein
ARPE-19 cells [2]; simultaneous treatment with anti-VEGF drugs, FIG. 14c
  tight junction, expression of α-SMA and formation of f-actin (immunofluorescence staining): inhibited disruption of tight junction, increased expression of α-SMA, and formation of f-actin
